Data taken from publication PMC10416611, “Overexpression of AHL proteins enhances root hair production by altering the transcription of RHD6‐downstream genes”.

T1: MBP-AHL28 (Arabidopsis thaliana, UniProt Q9M9R4 1-206)
T1 sequence: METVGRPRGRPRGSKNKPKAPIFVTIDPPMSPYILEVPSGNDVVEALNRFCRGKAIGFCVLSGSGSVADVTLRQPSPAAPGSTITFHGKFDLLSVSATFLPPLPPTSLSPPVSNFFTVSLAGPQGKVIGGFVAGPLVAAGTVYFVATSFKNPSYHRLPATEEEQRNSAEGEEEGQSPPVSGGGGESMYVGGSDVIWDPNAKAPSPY

B1: COW1 promoter probe (dsDNA)
DNA 1: TTTCTCTCATATTTAATTTATTTACTTAGAAA
DNA 2: TTTCTAAGTAAATAAATTAAATATGAGAGAAA
B2: PRP3 promoter probe (dsDNA)
DNA 1: GTCCAAATATTTATATTATAAGATACATTTTAATATTTAATTATGATTTAGTAGA
DNA 2: TCTACTAAATCATAATTAAATATTAAAATGTATCTTATAATATAAATATTTGGAC

Tests used:
MBP-AHL17-His = MBP-AHL17-His (Arabidopsis thaliana, UniProt Q9LTA2 1-276); experiment: EMSA; reduced by unlabeled probe; EMSA as in Sun et al. 2016; buffer, salt, pH and temperature not given; FAM-labeled probe 1 uM (Fig. S6); settings: protein: recombinant; tags: N-terminal MBP; C-terminal 6xHis; label: FAM; blunt
MBP-AHL28 = target: T1, MBP-AHL28; experiment: EMSA; 1.5 ug protein, 1 uM probe; reduced by unlabeled probe; EMSA as in Sun et al. 2016; buffer, salt, pH and temperature not given; FAM-labeled probe 1 uM (Fig. S6); settings: protein: recombinant; tags: N-terminal MBP; label: FAM; blunt

| Binder | binding result (MBP-AHL17-His) | binding result (MBP-AHL28) |
| --- | --- | --- |
| B1 | binds | binds |
| B2 | binds | binds |
